In US8933202B2, “AXL antibodies” (U3 Pharma GmbH, priority 2007, dated 2015):

Tests used:
[1] = tested on: NCI-H292 lung cancer cells; experiment: Wound healing/scratch assay; assay type: cell-based, human; settings: 10 μg/ml antibody, 24 h, compared to isotypic control antibody
Description: To examine the migration and proliferation rates of different cells and culture conditions, in vitro wound healing/scratch assays are being employed for many years. These assays generally involve growing a confluent cell monolayer first. A small area is then disrupted and a group of cells are being destroyed or displaced by scratching a line through the layer with, for example, a pipette tip. The open gap is then inspected microscopically over time as the cells move in and fill the damaged area (“healing”). In brief, 1.5×10^6 NCI-H292 lung cancer cells were seeded per well of a 12 well dish and cultured in normal growth medium (RPMI, 10% FCS). After 8 h, cells were rinsed with PBS and starved in low serum medium (RPMI, 0.5% FCS) over night for 24 h. Using a sterile 200 μl pipette tip, three separate uniform wounds per well were scratched through the confluent NCI-H292 cell monolayers. […] Cells were permitted to migrate into the area of clearing for 24 h, washed once with PBS and fixed with ice cold Methanol (100%) at −20° C. After cells were stained with crystal violet (0.5% in 20% Methanol), rinsed with water and dried over night, photos of the wounds were taken.

[2] = tested on: NIH3T3-pLXSN control; experiment: Primary FACS screen of hybridoma antibodies, binding to mock control cells
Description: Monoclonal rat anti-AXL antibodies were raised by injection of approximately 10×10^6 frozen cells of RatI-AXL cl.2 both i.p. and subcutaneously into Lou/C or Long Evans rats. After an 8-week interval, a final boost was given i.p and subcutaneously 3 d before fusion. Fusion of the myeloma cell line P3X63-Ag8.653 with the rat immune spleen cells was performed according to standard procedures and yielded 105 hybridomas. After 2 weeks, first supernatants from hybridomas were collected and tested in a primary FACS screen for binding to NIH3T3-AXL cl.7 fibroblasts versus NIH3T3-Mock control cells. Clones positive for AXL binding were further cultivated. From 50 ml supernatant of these clones, antibodies were purified and re-analyzed for specific binding to AXL on NIH3T3-AXL cl.7 fibroblasts versus NIH3T3-Mock control cells. Purified antibodies specifically binding to NIH3T3-AXL cl. 7 fibroblasts but not NIH3T3-Mock control cells were furthermore tested in Akt-Kinase phosphorylation ELISAs, and ELISAs to determine the isotype were performed. For purification of rat antibodies, supernatants were spun for 20 minutes at 5,000 g and subsequently sterile filtered. 500 μl of protein G sepharose FF were added and incubated at 4° C. for at least 1 h on a spinning wheel. […]

[3] = target: T1, human AXL-ECD (Homo sapiens, UniProt P30530); experiment: Competition ELISA on AXL-ECD coated plates; assay type: binding; settings: 10 μg/ml unbiotinylated, 0.5 μg/ml biotinylated antibody
T1 construct: purchased R&D Systems 154-AL
T1 sequence (P30530 26-451 limits assumed): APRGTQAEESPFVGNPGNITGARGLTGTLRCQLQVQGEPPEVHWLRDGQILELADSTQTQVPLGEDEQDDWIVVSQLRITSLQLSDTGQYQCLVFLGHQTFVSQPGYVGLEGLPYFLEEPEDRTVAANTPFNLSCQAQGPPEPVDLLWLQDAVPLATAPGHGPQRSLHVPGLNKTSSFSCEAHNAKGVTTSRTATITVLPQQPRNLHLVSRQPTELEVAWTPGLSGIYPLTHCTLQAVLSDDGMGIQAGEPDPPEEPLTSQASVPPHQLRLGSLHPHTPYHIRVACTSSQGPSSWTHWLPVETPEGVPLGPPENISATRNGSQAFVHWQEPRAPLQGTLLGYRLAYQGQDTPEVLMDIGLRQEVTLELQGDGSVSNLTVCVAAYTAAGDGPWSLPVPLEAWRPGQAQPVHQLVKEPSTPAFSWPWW
Description: Therefore binding of biotinylated anti-AXL antibodies to AXL-ECD domain-coated plates preincubated with anti-AXL antibodies was determined in a competition ELISA. […] On day 1, black 96 well Maxi-Sorp plates (Nunc) were coated with 100 μl/well of 1 μg/ml human AXL-ECD (R&D Systems #154-AL) in PBS over night at 4° C. […] After washing 6× with wash buffer (PBS, 0.1% TWEEN-20), 80 μl/well AP-conjugated Streptavidin (Chemicon #SA110) diluted 1:4,000 in blocking buffer were added, incubated for 20 min at room temperature washed again 6× with wash buffer and finally washed once with PBS. For detection, 100 μl/well Attophos substrate solution (Roche #11681982) were added. Using a Victor plate reader (Perkin Elmer), the fluorescence of each well was collected at an excitation wavelength of 430 nm an emission wavelength of 580 nm.

[4] = target: T2, AXL (Homo sapiens, UniProt P30530); experiment: AXL receptor tyrosine phosphorylation ELISA; assay type: cell-based; set-up: expressed in transfected cells; host or cells: NIH3T3-AXL cl.7 (pLXSN-hAXL) and NCI-H292 lung cancer cells (endogenous AXL); settings: 10 μg/ml antibody, 400 ng/ml Gas6; NIH3T3-AXL cl.7 fibroblasts and NCI-H292 lung cancer cells
T2 sequence (P30530 26-894): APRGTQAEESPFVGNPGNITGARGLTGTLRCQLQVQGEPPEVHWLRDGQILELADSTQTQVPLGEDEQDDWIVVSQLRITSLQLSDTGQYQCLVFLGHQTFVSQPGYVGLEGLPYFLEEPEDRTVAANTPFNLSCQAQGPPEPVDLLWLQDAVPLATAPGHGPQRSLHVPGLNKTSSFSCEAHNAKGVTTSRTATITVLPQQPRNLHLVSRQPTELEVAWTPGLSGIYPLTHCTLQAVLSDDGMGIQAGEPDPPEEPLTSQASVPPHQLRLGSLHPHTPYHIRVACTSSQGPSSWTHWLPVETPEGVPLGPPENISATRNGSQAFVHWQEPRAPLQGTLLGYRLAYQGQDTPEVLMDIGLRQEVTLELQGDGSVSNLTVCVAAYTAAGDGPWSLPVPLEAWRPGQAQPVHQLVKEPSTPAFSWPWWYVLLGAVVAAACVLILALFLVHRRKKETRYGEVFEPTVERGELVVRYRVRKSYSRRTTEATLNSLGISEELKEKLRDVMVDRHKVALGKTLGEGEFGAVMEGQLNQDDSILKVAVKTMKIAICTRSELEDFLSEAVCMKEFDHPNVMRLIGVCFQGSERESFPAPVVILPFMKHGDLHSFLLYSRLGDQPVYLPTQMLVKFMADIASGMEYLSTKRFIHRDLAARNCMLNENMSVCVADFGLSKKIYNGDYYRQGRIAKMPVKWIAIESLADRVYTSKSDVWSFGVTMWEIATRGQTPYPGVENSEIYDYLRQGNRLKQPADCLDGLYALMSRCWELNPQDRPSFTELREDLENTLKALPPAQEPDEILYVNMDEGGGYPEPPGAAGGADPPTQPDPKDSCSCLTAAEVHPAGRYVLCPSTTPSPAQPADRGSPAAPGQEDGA
Description: ELISA experiments were performed in order to investigate whether the rat anti-AXL antibodies of the invention are able to block ligand Gash-mediated activation of AXL. Gas6-mediated AXL activation was detected by increased receptor tyrosine phosphorylation. In brief, on day 1, 3×10^4 cells per well were seeded in normal growth medium in flat-bottom 96 well plates. The next day, growth medium was replaced by serum-free medium to starve cells over night for 24 h. Also over night, black Maxi-Sorp 96 well plates (Nunc) were coated with mouse anti-phospho-tyrosine antibody 4G10 at 2 μg/ml PBS and 4° C. On day 3, the 4G10 antibody solution was removed and Maxi-Sorp wells were blocked with PBS, 0.5% BSA for at lest 4 h at room temperature. […] Medium was then flicked out and cells were lysed in lysis buffer (50 mM HEPES, pH 7.5, 150 mM NaCl, 1 mM EDTA, 10% glycerine, and 1% Triton X-100) supplemented with phosphatase and protease inhibitors (10 mM Na4P2O7, 1 mM phenylmethylsulfonyl fluoride, 1 mM orthovanadate, 1 mM NaF, and 0.5% aprotinin) for 30 min on ice. […] Using a Victor plate reader (Perkin Elmer), the fluorescence of each well was collected at an excitation wavelength of 430 nm and an emission wavelength of 580 nm.

B1: 10D12: antagonistic rat anti-AXL monoclonal antibody (antibody, V domains shown)
VL: DIQMTQAPSSLPASLGDRVTIACRASQDIGNYLRWFQQKPGKSPRLMISGATNLAAGVPSRFSGSRSGSDYSRTISSLESEDMADYYCLQSKESPWTFGGGTKLELK
VH: EVQLQESGPGLVKPSQSLSLTCSVTGYSITSNYWGWIRKFPGNKMEWMGYITNSGGTAYNPSLKSRISITRDTSKNQFFLQLNSVIPEDSATYFCSRTPWDWGQGVMVTVSS
- re-population of the cleared area (wound closure) [1]: reduced the re-population of the cleared area
- FACS shift NIH3T3-pLXSN control [2]: 0.5
- competition with antagonistic anti-AXL antibodies for binding to AXL-ECD [3]: compete with each other for the same or structurally adjacent epitopes
- ligand-mediated AXL activation (phosphorylation) [4]: able to block or reduce ligand-mediated AXL activation
